# Data: US6353089B1, “Method for stimulating CTLs with peptides” (Ludwig Institute for Cancer Research, priority 1994, dated 2002)
# Assays:
# HLA-A2 molecules = target: T1, HLA-A2 molecules (Homo sapiens, UniProt P04439, D140Y/D185E/D98H/E176V/E277Q/G131W/G231S/I119V/I121R/I166T/I218V/L300P/L318F/N151K/N90K/P208A/P217A/Q86G/Q94H/R138H/R169H/T345S); experiment: HLA-A2 binding (stabilization) assay on T2 cells, mean fluorescence ratio; conditions: peptide 0.1 mM
# T1 construct: endogenous in cells; host or cells: 174 CEM.T2 (T2) cells
# Source text: To determine whether or not peptides bound to HLA-A2 molecules, cell line 174 CEM.T2 (hereafter “T2”) was used. This cell line is described by Cerundolo et al., Nature 345: 449-452 (1990), and Spies et al., Nature 348: 744-747 (1990), the disclosures of which are incorporated by reference. This is a cell line deficient in the pathway which supplies peptides to the endoplasmic reticulum, the site of assembly of MHC class I heterodimers. It can assemble MHC class-I molecules, but these are unstable, and, on cell lysis, dissociate into free heavy and light chains during overnight incubation. The heterodimers can, however, be stabilized in vitro via addition of appropriate peptide ligands, as per Townsend et al., Nature 340: 443-448 (1989); Townsend et al., Cell 62: […] (1990); Cerundolo et al., supra; Schumacher et al., Nature 350: 703-706 (1991); Elliot et al., Nature 351: 402-406 (1991); Elvin et al., Eur. J. Immunol. 21 : 2025-2031 (1991). The thus stabilized molecules can be immunoprecipitated with antibodies specific for the MHC class-I molecule.
# In light of this background, the T2 cells were washed in serum free IMDM medium, and then 1.0×10^6 cells were suspended in 400 ul of the serum free IMDM medium, together with 100 ul synthetic peptide (final concentration: 0.1 mM, 1% DMSO). The mixture was incubated, overnight, at 37° C. Following incubation, the cells were washed and stained, successively, with HLA-A2 specific monoclonal antibody BB7.2, and FITC labelled, binding fragments of polyclonal goat anti-mouse IgG. Fluorescence ratio was calculated by the following formula: [formula]
# This yielded the “mean fluorescence ratio” or MFR. In accordance with Nijman et al, supra, an MFR greater than 1.5 indicates binding to HLA-A2.
# T2 cells = experiment: chromium release assay with CTL 4.2, T2 target cells; type: cell-based; conditions: for % 51CR Release: T2 + peptide
# Method: The CTL clone was obtained using T2 cells, in accordance with Houbiers et al., Eur. J. Immunol. 23: 2072 (1993), previously incorporated by reference in its entirety.
# Once the CTL clone was isolated, it was used in a chromium release assay in accordance with Boon, et al., J. Exp. Med. 152: 1184 (1980) the disclosure of which is incorporated by reference in its entirety. In addition to T2, cell line SK23, which is an HLA-A2 presenting line, was tested. The results are presented below:
# Effector Cell (E): CTL 4.2 Target (T): HLA-A2 cell plus SEQ ID NO: 4
# [1] = overnight 37° C., BB7.2 staining, MFR greater than 1.5 indicates binding to HLA-A2
sequence,measurement,setting,value
"ALSRKVAEL [Peptide M3-108.116, MAGE-3 derived peptide]",MFR (mean fluorescence ratio),HLA-A2 molecules; in some of the experimental runs,< 1.5)
same,MFR (mean fluorescence ratio),HLA-A2 molecules; [1],"2.17 (and, less than"
"ALVETSYVKV [Peptide M3-277.286, MAGE-3 derived peptide]",MFR (mean fluorescence ratio),HLA-A2 molecules; [1],"1.8 (and, less than"
IMPKAGLLI [Peptide M3-195.203],MFR (mean fluorescence ratio),HLA-A2 molecules; [1],2.37
TLVEVTLGEV [Peptide M3-44.53],MFR (mean fluorescence ratio),HLA-A2 molecules; [1],3.5
KIWEELSVL [Peptide M3-220.228],% 51CR Release,"T2 cells; effector CTL 4.2, E/T ratio 0.5",57%
same,% 51CR Release,"T2 cells; effector CTL 4.2, E/T ratio 1.9",84%
same,% 51CR Release,"T2 cells; effector CTL 4.2, E/T ratio 7.5",88%
same,% 51CR Release,"T2 cells; effector CTL 4.2, E/T ratio 30",91%
same,lysis of peptide-pulsed target cells by cytolytic T cell clone 4.2,"T2 cells; target cells (T2, SK23) pulsed with peptide, no lysis in the absence of the peptide",specifically lysed
